We go through 1 protein from paper PMC6269424.

The nature of series [1]: western blot of adipose tissue. The conditions noted are these: glycan lost; control: HFD-fed Con (OGTflox) mice. For orientation: A western blot detects proteins with antibodies after separation by electrophoresis.
A short description of series [2]: phospho-PPARγ western blot of adipose tissue. The conditions noted are these: glycan lost; control: HFD-fed Con (OGTflox) mice.

B1: PPARγ2: adipocyte-specific OGT knockout (FKO) (protein)
parent chain: MGETLGDSPVDPEHGAFADALPMSTSQEITMVDTEMPFWPTNFGISSVDLSVMEDHSHSFDIKPFTTVDFSSISAPHYEDIPFTRADPMVADYKYDLKLQEYQSAIKVEPASPPYYSEKTQLYNRPHEEPSNSLMAIECRVCGDKASGFHYGVHACEGCKGFFRRTIRLKLIYDRCDLNCRIHKKSRNKCQYCRFQKCLAVGMSHNAIRFGRMPQAEKEKLLAEISSDIDQLNPESADLRALAKHLYDSYIKSFPLTKAKARAILTGKTTDKSPFVIYDMNSLMMGEDKIKFKHITPLQEQSKEVAIRIFQGCQFRSVEAVQEITEYAKNIPGFINLDLNDQVTLLKYGVHEIIYTMLASLMNKDGVLISEGQGFMTREFLKNLRKPFGDFMEPKFEFAVKFNALELDDSDLAIFIAVIILSGDRPGLLNVKPIEDIQDNLLQALELQLKLNHPESSQLFAKVLQKMTDLRQIVTEHVQLLHVIKKTETDMSLHPLLQEIYKDLY
On to B1, for which the expression_or_secretion entry in series [1] was “decreases”. Also, the “other: Ser112 phosphorylation” value in series [2] was “increases”.
